B1: H-NOX variant L144F-foldon fusion protein with no His6 tag at the C-terminus (monomer unit of the trimer) (other)
chain: MKGTIVGTWIKTLRDLYGNDVVDESLKSVGWEPDRVITPLEDIDDDEVRRIFAKVSEKTGKNVNEIWREVGRQNIKTFSEWFPSYFAGRRLVNFLMMMDEVHLQLTKMIKGATPPRLIAKPVAKDAIEMEYVSKRKMYDYFLGFIEGSSKFFKEEISVEEVERGEKDGFSRLKVRIKFKNPVFEYKKNLEGSGGYIPEAPRDGQAYVRKDGEWVLLSTFL
modifications: non-covalently bound heme cofactor is not carried by the letters
notes: No His6 tag; also called H-NOX+foldon; L144F H-NOX trimer without His6
B2: Thermoanaerobacter tengcongensis L144F H-NOX-foldon-His6 fusion protein (monomer unit) (other)
chain: MKGTIVGTWIKTLRDLYGNDVVDESLKSVGWEPDRVITPLEDIDDDEVRRIFAKVSEKTGKNVNEIWREVGRQNIKTFSEWFPSYFAGRRLVNFLMMMDEVHLQLTKMIKGATPPRLIAKPVAKDAIEMEYVSKRKMYDYFLGFIEGSSKFFKEEISVEEVERGEKDGFSRLKVRIKFKNPVFEYKKNLEGSGGYIPEAPRDGQAYVRKDGEWVLLSTFLRGSHHHHHH
modifications: heme (porphyrin IX) cofactor bound non-covalently (so in the source)
notes: 229 amino acids, 26,677 AMU as a monomer; Three of these chains associate through the foldon domain to form the about 80 kDa H-NOX trimer; It is entered as the monomer unit so that the self-association can be written as a pair; also called H-NOX-foldon fusion protein; H-NOX-foldon protein

Tests used:
[1] = biological target: the molecule itself; experiment: size exclusion chromatography; self-association of H-NOX+foldon monomers into a homotrimer
[2] = biological target: the molecule itself; experiment: analytical size exclusion chromatography (Superdex 200 10/300 GL); self-association into a homotrimer

Row | Protein | binding result [1] | binding result [2]
1 | B1 | binds | –
2 | B2 | – | binds

Reference: patent US10385116 (OMNIOX, dated 2019)
